Columns and labels:
[1] = target: SARS-CoV-2 Delta variant RBD (SARS-CoV-2, Delta (B.1.617.2), strain); experiment: BLI
[2] = target: T1, SARS-CoV-2 receptor binding domain (RBD), wild type (SARS-CoV-2, wild type (Wuhan), UniProt P0DTC2); experiment: BLI
[3] = target: T2, SARS-CoV-2 Omicron BA.1 RBD (SARS-CoV-2, Omicron BA.1, strain); experiment: BLI
[4] = target: SARS-CoV-2 Beta variant RBD (SARS-CoV-2, Beta (B.1.351), strain); experiment: BLI
[5] = target: T1, SARS-CoV-2 receptor binding domain …; experiment: cell-based or functional assay
[6] = target: T2, SARS-CoV-2 Omicron BA.1 RBD; experiment: cell-based or functional assay

| Binder | Kd [1] | Kd [2] | Kd [3] | Kd [4] | IC50 of neutralization of authentic SARS-CoV-2 D614G [5] | IC50 of neutralization of authentic SARS-CoV-2 BA.1 [6] | fold reduction of binding against 20A7 [2] |
| --- | --- | --- | --- | --- | --- | --- | --- |
| 25F9 (antibody, V domains shown) VH: EVQLVESGGGLVQPGGSLRLSCSASGFRFSDYWINWVRQAPGKGLEWVGFIKTKADFGTPAYAESVKGRFSISRDDSKNTVYLQMNSLKTEDTAVYYCTRDRGILEWLIIEAGWFDVWGPGVLVTVSS VL: QSVLTQPPSASGAPGQRVTISCTGSSSNIGAGHYVSWYQQLPGTAPKLLIHENDKRPSGVSDRFSGSRSGASASLTITGLQSGDEADYYCSVWDRSLNTLFGGGTRVTVL | < 0.666 pM | < 0.666 pM | < 0.666 pM | < 0.666 pM | 6 ng/mL | 42 ng/mL |  |
| 20A7 (antibody, V domains shown) VH: DVQLVESGGGLVKPGGSLRLSCVASGFTFSNSEMHWVRQAPGKGLEWVSVISESGETTHYADSVKGRFTISRDNANNLLLLQMNSLRADDTAVYYCTRYNWNNRVYALDSWGQGVVVTVSS VL: EIVLTQSPATLSLSPGEGASLSCRASQTVIGSLAWYQQKPGQAPRLLIYGASSRATGIPDRFSGSGSGTDFTLTISSLEPEDFAVYYCQQYGNWPLTFGPGTRLDIR | < 0.666 pM | < 0.666 pM | < 0.666 pM | < 0.666 pM |  | 6 ng/mL |  |
| 21B6 (antibody, V domains shown) VH: EVRLVESGGGLVQPGGSLRLSCAASGFTFSDYYISWVRQAPGRGPEWVGFIRNVLYRGTTEYAPSVKGRFIISRDDSRAIASLQMNGLKADDTAVYYCALGASGTDRDWFDVWGPGVLVTVSS VL: DIQMTQSPSSLSASVGDTVTITCRASQDISNSLAWYQQKPGKAPKALIYYASNLESGVPSRFSGSGSGTDFTLTISSLQPEDFATYYCQQHNNYPFTFGPGTKVDIK | < 0.666 pM | < 0.666 pM | < 0.666 pM | < 0.666 pM |  | 11 ng/mL |  |
| 20A7-VH E33V (antibody, V domains shown) VH: DVQLVESGGGLVKPGGSLRLSCVASGFTFSNSVMHWVRQAPGKGLEWVSVISESGETTHYADSVKGRFTISRDNANNLLLLQMNSLRADDTAVYYCTRYNWNNRVYALDSWGQGVVVTVSS VL: EIVLTQSPATLSLSPGEGASLSCRASQTVIGSLAWYQQKPGQAPRLLIYGASSRATGIPDRFSGSGSGTDFTLTISSLEPEDFAVYYCQQYGNWPLTFGPGTRLDIR |  |  |  |  |  |  | ~300 fold |

Reference: paper doi:10.1101/2023.01.19.524784 (bioRxiv, 2023)
